Results on 9 molecules are retold here after patent US20200317758A1 (NEW YORK UNIVERSITY, published 2020).

Numbering of substitutions follows the chain as printed.

The target of assay [1] is T1, recombinant derivative of the LukE protein (SEQ ID NO: 826) with amino-terminal poly-histidine affinity tag (Staphylococcus aureus, UniProt Q2FXB0 24-306).
T1 construct: not biotinylated in HDX-MS and neutralization assays; also called biotinylated LukE; LukE antigen
T1 sequence: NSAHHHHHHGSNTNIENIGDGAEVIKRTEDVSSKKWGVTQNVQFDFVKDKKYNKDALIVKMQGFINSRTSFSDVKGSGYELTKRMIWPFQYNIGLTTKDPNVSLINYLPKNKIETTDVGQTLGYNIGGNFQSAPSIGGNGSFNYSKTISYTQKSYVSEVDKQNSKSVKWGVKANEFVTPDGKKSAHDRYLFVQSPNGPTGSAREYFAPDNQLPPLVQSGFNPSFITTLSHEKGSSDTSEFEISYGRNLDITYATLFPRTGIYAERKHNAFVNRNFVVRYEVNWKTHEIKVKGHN
Put plainly: BLI, sequential binding. In general terms: Biolayer interferometry detects binding as a change in optical thickness at a sensor tip.

The target in assay [2] is T1, recombinant derivative of the LukE …. Put plainly: HDX-MS, Fab with LukE in solution.
Assay [3] concerns the target T2, recombinant derivative of the LukD protein (SEQ ID NO: 824) with amino-terminal polyhistidine affinity tag, … (Staphylococcus aureus, UniProt Q2FXB1 27-327, chemically biotinylated in vitro (sites not given)).
T2 construct: it carries the N-terminal His tag; also called biotinylated LukD; LukD antigen
T2 sequence: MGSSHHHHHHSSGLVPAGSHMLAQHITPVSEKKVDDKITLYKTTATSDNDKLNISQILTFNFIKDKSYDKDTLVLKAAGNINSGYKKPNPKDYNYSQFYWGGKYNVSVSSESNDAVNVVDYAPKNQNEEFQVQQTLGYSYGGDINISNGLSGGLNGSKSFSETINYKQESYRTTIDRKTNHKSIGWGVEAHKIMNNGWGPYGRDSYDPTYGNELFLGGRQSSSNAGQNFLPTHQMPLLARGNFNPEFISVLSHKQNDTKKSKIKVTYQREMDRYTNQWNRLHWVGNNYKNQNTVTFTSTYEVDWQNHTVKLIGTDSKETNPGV
Put plainly: ELISA, biotinylated LukD on streptavidin plate, mAb titrated.

Assay [4] has as its target T3, recombinant toxoid variant of the LukAB protein (LukA E323A) with poly-histidine and streptavidin binding … (Staphylococcus aureus, UniProt Q2FFA2 31-351; P21224 30-338).
T3 construct: also called LukAB toxoid protein; biotinylated LukAB
Nature of the assay: ELISA, biotinylated LukAB toxoid on streptavidin plate, mAb titrated. On the technique in general: In an ELISA, binding on a coated surface is turned into a signal by an enzyme label.

The target of assay [5] is T1, recombinant derivative of the LukE …. Put plainly: ELISA, biotinylated LukE on streptavidin plate, mAb titrated.

B1: anti-LukE mAb SM1B507 (antibody, mouse IgG1, kappa)
heavy: EVQLQQSGAELVKPGASVKMSCKASGYTFTDYYMDWVKQSHGKSFEWIGHVNPYNGDTRYNQKFKGKATLTVDKSSTTAYMELNSLTSEDSAVYYCARGNFFDYWGQGTTLSVSSAKTTPPSVYPLAPGSAAQTNSMVTLGCLVKGYFPEPVTVTWNSGSLSSGVHTFPAVLESDLYTLSSSVTVPSSPRPSETVTCNVAHPASSTKVDKKIVPRDCGCKPCICTVPEVSSVFIFPPKPKDVLTITLTPKVTCVVVDISKDDPEVQFSWFVDDVEVHTAQTQPREEQFNSTFRSVSELPIMHQDWLNGKEFKCRVNSAAFPAPIEKTISKTKGRPKAPQVYTIPPPKEQMAKDKVSLTCMITDFFPEDITVEWQWNGQPAENYKNTQPIMNTNGSYFVYSKLNVQKSNWEAGNTFTCSVLHEGLHNHHTEKSLSHSPGK
light: DIVMTQSPAIMSASPGEKVTIPCSASSSVSYMHWFQQKPGTSPKLWIYSTSNLASGVPGRFSGSGSGTSYSLTISRMEAEDAATYYCQQRSNYPLTFGAGTKLELKRADAAPTVSIFPPSSEQLTSGGASVVCFLNNFYPKDINVKWKIDGSERQNGVLNSWTDQDSKDSTYSMSSTLTLTKDEYERHNSYTCEATHKTSTSPIVKSFNRNEC
As to B1, the binding result in assay [1] is on record as “binds”.

B2: Fab SM1B709 (the Fab corresponding to mAb SM1B507) (Fab, V domains shown)
VH: EVQLQQSGAELVKPGASVKMSCKASGYTFTDYYMDWVKQSHGKSFEWIGHVNPYNGDTRYNQKFKGKATLTVDKSSTTAYMELNSLTSEDSAVYYCARGNFFDYWGQGTTLSVSS
VL: DIVMTQSPAIMSASPGEKVTIPCSASSSVSYMHWFQQKPGTSPKLWIYSTSNLASGVPGRFSGSGSGTSYSLTISRMEAEDAATYYCQQRSNYPLTFGAGTKLELKR
For B2, the binding result in assay [2] is on record as “binds”.

B3: antibody SM1B225 (antibody, V domains shown)
VH: EVQLQQSGGGLVKPGGSLKLSCAASGFTFSSYAMSWVRQTPEKRLEWVATITGGGTYTYYLDSVKGRFTISRDNAKTSLYLQMSSLRSEDTAMYYCARHRDGNYGCFDVWGAGTTVTVSS
VL: DIVLTQSPAIMSASLGERVTMTCTASSSVSSSYLHWYQQKPGSSPKLWVYSTSNLASGVPARFSGSGSGSSYSLTISSMEPEDTATYYCHQYHRSPQTFGGGTKLEIKR
notes: also called anti-LukD mAb SM1B225
Consider B3, for which the EC50 – broadly, the concentration that produces a half-maximal response – in assay [3] lay in the range of 0.01 to 0.2 µg/mL.

B4: anti-LukAB mAb SM1B111 (antibody, V domains shown)
VH: EVQLQQSGAELVKPGASVKISCKASGYAFSSSWMNWLKQRPGKGLEWIGRIYPGDGDTNYNGKFKGKATLTADKSSSTAYMQLSSLTSEDSAVYFCARYGYDYDGEYYYAMDYWGQGTSVTVSS
VL: DIVMTQSPTTMAASPGERITITCSAHSNLISNYLHWYQQKPGFSPKLLIYRTSNLASGVPARFSGSGSGTSYSLTIGTMEAEDVATYFCQQGSSIPFTFGSGTKLEIKR
For B4, the binding result in assay [4] is “binds”.

B5: anti-LukAB mAb SM1B252 (antibody, mouse IgG2a, kappa, V domains shown)
VH: QVQLQQSGAELMKPGASVKISCKASGYTFSDYWIEWIKQRPGHGLEWMGEILPGSDKTNYNEKFKGKATFTADSSSNTAYMQLNSLTSEDSAVFYCATAGDDYVKWGQGTLVTVSA
VL: DVLMTQTPLSLPVSLGDQASISCRSSQSIVYSNGNTYLEWYLQKPGQSPKLLIYKVSNRFSGVPDRFSGSGSGTDFTLKISRVEAEDLGVYYCFQGSHVPFTFGSGTKLEIKR
With B5, in assay [4], the binding result is on record as “binds”.

B6: Fab SM1B438 (the Fab corresponding to mAb SM1B318) (Fab, V domains shown)
VH: QVQLQQSGAELMNPGASVKISCKSTGYKFSSYWIEWVKQRPGHGLEWMGEILPGSGSTNHNEKFKGKAIFTADASSNTAYMELSSLTSEDSAVYYCARTISTATDWFAYWGQGTLVTVSA
VL: B5 VL with S28T, N33D, F67V, F101Y, S105G
With B6, the binding result in assay [2] is “binds”.

B7: anti-LukE mAb SM1B318 (antibody, mouse IgG2a, kappa, V domains shown)
VH: B6 VH
VL: B5 VL with S28T, N33D, F67V, F101Y, S105G
B7: in assay [5], the binding result is given as “binds”.

B8: anti-LukE mAb SM1B332 (antibody, mouse IgG2a, kappa, V domains shown)
VH: QVQLKESGPGLVAPSQSLSITCTVSGLSLTSYGLSWVRQPPGKGLEWLGVIWGDGSTNYHSALISRLSISKDNSKSQVFLKLNSLQSDDTATYYCATRGDYGSYAMDYWGQGTSVTVSS
VL: QIVLTQSPAIMSASPGEKVTLTCSASSSVSSSYLFWYQQKPGSSPKLWIYSTSNLASGVPVRFSGSGFGTSYSLTISRMEAEDAASYFCHQWSSYPPTFGAGTKLELKR
Regarding B8, in assay [5], the half-maximal effective concentration (EC50) was around 0.05 µg/mL.

B9: anti-LukAB mAb SM1B245 (antibody, mouse IgG2a, kappa, V domains shown)
VH: QVQLQQSGAELAKPGASVKMSCKSSGYTFSTYWMHWVKQRPGQGLEWIGYINPNTGYTEYNQKFKDTATLTADKSSSTAYMQLSSLTSEDSAVYYCARGGSKAFPYYAMDYWGQGTSVTVSS
VL: DIVLTQSPASLAVSLGQRATMSCRASESVDGYGNSFLHWYQQKPGQPPKLLIYRASNLESGIPARFSGTGSRTDFTLTITPVEADDVATYYCQQSNGDPFTFGSGTKLEIKR
As to B9, the binding result in assay [4] is “binds”.
